For the experiment, the target named is trypsin. The experiment in a line: cell-based or functional assay.

In the case of “TrxA-PI2JO fusion protein (thioredoxin fused to potato proteinase inhibitor II isomer PI2JO, from plasmid pKBEPI-5 in E. coli BL21trxB(DE3)) (from UniProt P0AA25 1-109)”, the Trypsin inhibition activity (hydrolysis of TAME by trypsin followed at 247 nm; one unit = amount causing 50% inhibition of trypsin) (Trypsin-Inhibition-Unit/mL) worked out at 1390.

Values taken from patent US20060154340A1.
